# Data: IntAct's records for PubMed 12445118
# B1: Coronatine-insensitive protein 1 (Arabidopsis thaliana (Mouse-ear cress)), O04197 (parent)
# chain: MEDPDIKRCKLSCVATVDDVIEQVMTYITDPKDRDSASLVCRRWFKIDSETREHVTMALCYTATPDRLSRRFPNLRSLKLKGKPRAAMFNLIPENWGGYVTPWVTEISNNLRQLKSVHFRRMIVSDLDLDRLAKARADDLETLKLDKCSGFTTDGLLSIVTHCRKIKTLLMEESSFSEKDGKWLHELAQHNTSLEVLNFYMTEFAKISPKDLETIARNCRSLVSVKVGDFEILELVGFFKAAANLEEFCGGSLNEDIGMPEKYMNLVFPRKLCRLGLSYMGPNEMPILFPFAAQIRKLDLLYALLETEDHCTLIQKCPNLEVLETRNVIGDRGLEVLAQYCKQLKRLRIERGADEQGMEDEEGLVSQRGLIALAQGCQELEYMAVYVSDITNESLESIGTYLKNLCDFRLVLLDREERITDLPLDNGVRSLLIGCKKLRRFAFYLRQGGLTDLGLSYIGQYSPNVRWMLLGYVGESDEGLMEFSRGCPNLQKLEMRGCCFSERAIAAAVTKLPSLRYLWVQGYRASMTGQDLMQMARPYWNIELIPSRRVPEVNQQGEIREMEHPAHILAYYSLAGQRTDCPTTVRVLKEPI
# partner: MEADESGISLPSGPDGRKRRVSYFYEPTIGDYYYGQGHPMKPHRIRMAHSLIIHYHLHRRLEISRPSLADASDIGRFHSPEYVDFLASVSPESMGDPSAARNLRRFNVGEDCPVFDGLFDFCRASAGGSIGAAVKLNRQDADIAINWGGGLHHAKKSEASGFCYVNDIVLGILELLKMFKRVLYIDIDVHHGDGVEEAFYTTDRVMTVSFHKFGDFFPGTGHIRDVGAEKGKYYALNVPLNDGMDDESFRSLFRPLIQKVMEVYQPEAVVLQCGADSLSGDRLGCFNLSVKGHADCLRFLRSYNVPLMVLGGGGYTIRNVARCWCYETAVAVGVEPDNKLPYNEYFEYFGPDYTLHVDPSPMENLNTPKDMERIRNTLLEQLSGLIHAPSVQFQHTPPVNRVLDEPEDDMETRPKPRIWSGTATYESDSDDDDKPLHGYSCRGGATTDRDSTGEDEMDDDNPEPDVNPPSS
# B2: Coronatine-insensitive protein 1 (Arabidopsis thaliana (Mouse-ear cress)), O04197 (parent)
# chain: B1 chain
# Variants of: B1
# Conditions: with hda6_arath HDA6, Q9FML2
row,effect of a mutation on the interaction,Variant
1,decreasing interaction,MEDPDIKRCKLSCVATVDDVIEQVMTYITDPKDRDSASLVCRRWFKIDSETREHVTMALCYTATPDRLSRRFPNLRSLKLKGKPRAAMFNLIPENWGGYVTPWVTEISNNLRQLKSVHFRRMIVSDLDLDRLAKARADDLETLKLDKCSGFTTDGLLSIVTHCRKIKTLLMEESSFSEKDGKWLHELAQHNTSLEVLNFYMTEFAKISPKDLETIARNCRSLVSVKVGDFEILELVGFFKAAANFEEFCGGSLNEDIGMPEKYMNLVFPRKLCRLGLSYMGPNEMPILFPFAAQIRKLDLLYALLETEDHCTLIQKCPNLEVLETRNVIGDRGLEVLAQYCKQLKRLRIERGADEQGMEDEEGLVSQRGLIALAQGCQELEYMAVYVSDITNESLESIGTYLKNLCDFRLVLLDREERITDLPLDNGVRSLLIGCKKLRRFAFYLRQGGLTDLGLSYIGQYSPNVRWMLLGYVGESDEGLMEFSRGCPNLQKLEMRGCCFSERAIAAAVTKLPSLRYLWVQGYRASMTGQDLMQMARPYWNIELIPSRRVPEVNQQGEIREMEHPAHILAYYSLAGQRTDCPTTVRVLKEPI [L245F]
2,decreasing interaction,MEDPDIKRCKLSCVATVDDVIEQVMTYITDPKDRDSASLVCRRAFKIDSETREHVTMALCYTATPDRLSRRFPNLRSLKLKGKPRAAMFNLIPENWGGYVTPWVTEISNNLRQLKSVHFRRMIVSDLDLDRLAKARADDLETLKLDKCSGFTTDGLLSIVTHCRKIKTLLMEESSFSEKDGKWLHELAQHNTSLEVLNFYMTEFAKISPKDLETIARNCRSLVSVKVGDFEILELVGFFKAAANLEEFCGGSLNEDIGMPEKYMNLVFPRKLCRLGLSYMGPNEMPILFPFAAQIRKLDLLYALLETEDHCTLIQKCPNLEVLETRNVIGDRGLEVLAQYCKQLKRLRIERGADEQGMEDEEGLVSQRGLIALAQGCQELEYMAVYVSDITNESLESIGTYLKNLCDFRLVLLDREERITDLPLDNGVRSLLIGCKKLRRFAFYLRQGGLTDLGLSYIGQYSPNVRWMLLGYVGESDEGLMEFSRGCPNLQKLEMRGCCFSERAIAAAVTKLPSLRYLWVQGYRASMTGQDLMQMARPYWNIELIPSRRVPEVNQQGEIREMEHPAHILAYYSLAGQRTDCPTTVRVLKEPI [W44A]

# Variants of: B2
# Conditions: with rbs3b_arath RBCS-3B
row,effect of a mutation on the interaction,Variant
1,decreasing interaction,MEDPDIKRCKLSCVATVDDVIEQVMTYITDPKDRDSASLVCRRWFKIDSETREHVTMALCYTATPDRLSRRFPNLRSLKLKGKPRAAMFNLIPENWGGYVTPWVTEISNNLRQLKSVHFRRMIVSDLDLDRLAKARADDLETLKLDKCSGFTTDGLLSIVTHCRKIKTLLMEESSFSEKDGKWLHELAQHNTSLEVLNFYMTEFAKISPKDLETIARNCRSLVSVKVGDFEILELVGFFKAAANFEEFCGGSLNEDIGMPEKYMNLVFPRKLCRLGLSYMGPNEMPILFPFAAQIRKLDLLYALLETEDHCTLIQKCPNLEVLETRNVIGDRGLEVLAQYCKQLKRLRIERGADEQGMEDEEGLVSQRGLIALAQGCQELEYMAVYVSDITNESLESIGTYLKNLCDFRLVLLDREERITDLPLDNGVRSLLIGCKKLRRFAFYLRQGGLTDLGLSYIGQYSPNVRWMLLGYVGESDEGLMEFSRGCPNLQKLEMRGCCFSERAIAAAVTKLPSLRYLWVQGYRASMTGQDLMQMARPYWNIELIPSRRVPEVNQQGEIREMEHPAHILAYYSLAGQRTDCPTTVRVLKEPI [L245F]
2,decreasing interaction,MEDPDIKRCKLSCVATVDDVIEQVMTYITDPKDRDSASLVCRRAFKIDSETREHVTMALCYTATPDRLSRRFPNLRSLKLKGKPRAAMFNLIPENWGGYVTPWVTEISNNLRQLKSVHFRRMIVSDLDLDRLAKARADDLETLKLDKCSGFTTDGLLSIVTHCRKIKTLLMEESSFSEKDGKWLHELAQHNTSLEVLNFYMTEFAKISPKDLETIARNCRSLVSVKVGDFEILELVGFFKAAANLEEFCGGSLNEDIGMPEKYMNLVFPRKLCRLGLSYMGPNEMPILFPFAAQIRKLDLLYALLETEDHCTLIQKCPNLEVLETRNVIGDRGLEVLAQYCKQLKRLRIERGADEQGMEDEEGLVSQRGLIALAQGCQELEYMAVYVSDITNESLESIGTYLKNLCDFRLVLLDREERITDLPLDNGVRSLLIGCKKLRRFAFYLRQGGLTDLGLSYIGQYSPNVRWMLLGYVGESDEGLMEFSRGCPNLQKLEMRGCCFSERAIAAAVTKLPSLRYLWVQGYRASMTGQDLMQMARPYWNIELIPSRRVPEVNQQGEIREMEHPAHILAYYSLAGQRTDCPTTVRVLKEPI [W44A]

# Variants of: B2
# Conditions: with skp1a_arath SKP1A
row,effect of a mutation on the interaction,Variant
1,decreasing interaction,MEDPDIKRCKLSCVATVDDVIEQVMTYITDPKDRDSASLVCRRAFKIDSETREHVTMALCYTATPDRLSRRFPNLRSLKLKGKPRAAMFNLIPENWGGYVTPWVTEISNNLRQLKSVHFRRMIVSDLDLDRLAKARADDLETLKLDKCSGFTTDGLLSIVTHCRKIKTLLMEESSFSEKDGKWLHELAQHNTSLEVLNFYMTEFAKISPKDLETIARNCRSLVSVKVGDFEILELVGFFKAAANLEEFCGGSLNEDIGMPEKYMNLVFPRKLCRLGLSYMGPNEMPILFPFAAQIRKLDLLYALLETEDHCTLIQKCPNLEVLETRNVIGDRGLEVLAQYCKQLKRLRIERGADEQGMEDEEGLVSQRGLIALAQGCQELEYMAVYVSDITNESLESIGTYLKNLCDFRLVLLDREERITDLPLDNGVRSLLIGCKKLRRFAFYLRQGGLTDLGLSYIGQYSPNVRWMLLGYVGESDEGLMEFSRGCPNLQKLEMRGCCFSERAIAAAVTKLPSLRYLWVQGYRASMTGQDLMQMARPYWNIELIPSRRVPEVNQQGEIREMEHPAHILAYYSLAGQRTDCPTTVRVLKEPI [W44A]

# Variants of: B2
# Conditions: with skp1b_arath SKP1B
row,effect of a mutation on the interaction,Variant
1,decreasing interaction,MEDPDIKRCKLSCVATVDDVIEQVMTYITDPKDRDSASLVCRRAFKIDSETREHVTMALCYTATPDRLSRRFPNLRSLKLKGKPRAAMFNLIPENWGGYVTPWVTEISNNLRQLKSVHFRRMIVSDLDLDRLAKARADDLETLKLDKCSGFTTDGLLSIVTHCRKIKTLLMEESSFSEKDGKWLHELAQHNTSLEVLNFYMTEFAKISPKDLETIARNCRSLVSVKVGDFEILELVGFFKAAANLEEFCGGSLNEDIGMPEKYMNLVFPRKLCRLGLSYMGPNEMPILFPFAAQIRKLDLLYALLETEDHCTLIQKCPNLEVLETRNVIGDRGLEVLAQYCKQLKRLRIERGADEQGMEDEEGLVSQRGLIALAQGCQELEYMAVYVSDITNESLESIGTYLKNLCDFRLVLLDREERITDLPLDNGVRSLLIGCKKLRRFAFYLRQGGLTDLGLSYIGQYSPNVRWMLLGYVGESDEGLMEFSRGCPNLQKLEMRGCCFSERAIAAAVTKLPSLRYLWVQGYRASMTGQDLMQMARPYWNIELIPSRRVPEVNQQGEIREMEHPAHILAYYSLAGQRTDCPTTVRVLKEPI [W44A]
